In assay [1] the target is p300 (UniProt Q09472). Put plainly: ELISA, total binding fit, average of three independent trials (FIG. 21). A general note: An ELISA detects its analyte on a solid surface through an enzyme-linked reagent.
The target of assay [2] is p300 (UniProt Q09472). Put plainly: ELISA; ratio of Kd against native HIF1α.

Sequence of p300 (Q09472 323-423 limits assumed): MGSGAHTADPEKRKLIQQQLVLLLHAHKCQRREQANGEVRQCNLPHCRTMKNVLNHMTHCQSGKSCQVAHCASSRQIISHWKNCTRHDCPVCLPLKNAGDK

B1: HIF1α-MAP-2 (H-MAP-2) (designed binder)
chain: MRGSPKKKRKVGGGGSHHHHHHHHGSACELAATATATATATATAACGDLAPQMLRELQETNAALQDVRELLRQQVKEITFLKNTLLEIWKAAKEAAKEAAAKIEEQAKTFLDKFNGEELLRALDQVN
By Kd is commonly meant the free concentration of one partner at which half of the binding sites on the other are occupied at equilibrium, for simple one-to-one binding. A lower Kd goes with higher affinity. With B1, the equilibrium dissociation constant (Kd) with p300 [1] worked out at 0.0382 nM.

B2: HIF1α-MAP-1 (H-MAP-1) (designed binder)
chain: MRGSHHHHHHGSACELAATATATATATATAACGDLAPQMLRELQETNAALQDVRELLRQQVKEITFLKNTLLEIWKAAKEAAKEAAAKIEEQAKTFLDKFNGEELLRALDQVN
With B2, in the assay with p300 [1], the Kd stood at 0.00808 nM. Also, in the assay with p300 [2], the fold improvement over native HIF1α is 47 fold.

The values are drawn from US20230280343A1.
